Results on 1 substance are retold here after publication PMC4336627.

By stoichiometry N is commonly meant the number of molecules, sites or subunits per partner or assembly.

In this assay the target is Flag-6xHis-TET2^CD (human). Put plainly: pull-down.

The substance “Flag-WT1 (purified recombinant) (from UniProt P19544 1-449) (natural protein)” displayed a stoichiometry N of 1.
